Laboratory results from the domain aggregation screens of Martell et al. (2025).

Assay: soluble fraction after stress (log2 fold change); higher = more stays soluble; pooled small domains, quantitative proteomics
Details: stress: 75 degC
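Further: 20 min heating vs room temperature control held 20 min.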

Sequence	soluble fraction (log2)
HMAVNDPDEKFIELGIPADWVQVVRKAGFQTVEALKTVENPNKLHQELSGLNKKMKLGLKTLSQDEVKDWF	0.0688
HMAVPMTPGELVGSRVRVLWWKDGRGEVVALARGHQATLPARSEEPLRTGADAVVLEADEGTLVVTS	-0.13
HMAVSGRMMVYEYIRQQMREGSLLPGSVLDLPAISHKLGISNTPLRDSLIRLEAEGYLTIYPRSKVVIN	-3.03
HMAVTGRVDLRIKPWGYVSVDGAAKVSSPPTMQLKLAPGRHEIEITNPAGAAVTKTVDVIAGKSVTVQHN	-0.0874
HMAVTKVKVITESSNLNIRKGPGTDQPIVGKAAHHEIITLVNKSNDQWWLVRTNDGEEGYSYSRYLEPVT	-0.667
HMAVVEVATTTATEYKVEKGHHFKVGDFVMFKTGAKSYAITAIDTTSPIFDKITVGTTLGEAIPVGGTLM	-1.62
HMAVVIPDVKGMTIEEAAPFLAEKGIRYNIIDSVFSKDVDPGAIVEIVPTPGSKVKEGRIVFVTINAK	-0.774
HMAVVQMVDRPGGLDELLKDVVRAGVNFANAYGRTASDGNSAFFVIDIQDIPGARQKLADVGLQILADEAV	-0.383
HMAWAVDVGVVGLFPGKAVLVIDGGAPRTVPVGANVGGVRLLAVDQGSATVEIGGKRQRLAIGQHAH	-1.69
HMAWIGEHTVTSEDTLSHIALKFYGHATPPYYKLIYEANKAIIGDNMNIIVPGQVLRIPALPEEL	-1.35
HMAYLTVPAVIAKDTKKSIQLLESKGFEVVIQDSIYTDTLARGTVIKQLPDPNATVKINRTVYLTVNRYTP	-2.41
HMAYQQITIKANVVNVRQGPGLSYDVMSQANKGETMNVISQKNNWYQVRLSGDKIGWVASWLVDNT	-3.08
HMAYWVVKNNQVSLQINRSNYQITSTARALSNGNLGDEIDVKVLQSGVIKKAVVIGKGQVELLR	-3.24
HMDAHIGTLTPRERETLHHLAIGHSNKVIAKKLNLAESTVKAYVQSILRKLGLSSRVQAAVYAIQHDIR	-0.702
HMDAIDPKTVTSWADLWKPEYKSSLLLTDDAREVFQMALRKLGYSGNTTDPKEIEAAYNELKKLMPNVAAF	-0.193
HMDAIDQDGNHMTFKRWGEQLQEAFQALEAYDTDKAKTILNELIKFPIDSDLNNALKGILSNIDEMMA	-0.914
HMDAINITTYKGQITLTGTKTGTLVGIYNTAGMLVKSMMSKGEKLYFDNLPSGVYIIKVGEEEPRKVQVI	-2.16
HMDAKIEYTMSDLIENRLINSDDASMRREKLSEILKIGYGNGKKTLHKLNSFGITREEFEEAMKEVNSH	0.0731
HMDAKIKDYADAYAKMDPQQAASLFNNMTTGSLDLVAKILENIPANKRAAILEKMDVNAAAQVTEKMR	-0.0156
HMDAKSRFQEWVQAETGITPTYRIIGDSGPDHAKTFIAQVLLGERVVGEGVGSSKRAAEQAAAQAALAAM	-0.0803
HMDAMMQRLERLKELASSADGSKDYLILGPLRRDLAKLMALEDPKLRQGAEELDRKILAILS	-0.477
HMDAPHPSVVQVYFESRDRSWTYYNDRFDLHEGDLVYVEGKLEGVRGRVVEVSYNFRIKLADYKRVIAVA	-3.29
HMDASSAVQFGSLLRDARRRQGLSQAELGGDKYSGSYISHLESGRRVATPEVIEFLSRRLGVSPLEWGVS	-0.0146
HMDASSTGFLGKHVQIVGLVSQPHLNGRRGVASRFDSNRRRYLVRLDEIDGHAEVVAFRPDNLVLSNLL	-0.627
HMDASVTIEQVERMVQANVSDDVIISQLQGRGAAQNLSTDDIINLTQKGISAEVIKAYQSAG	0.111
HMDAVLMEYDRLLALELTEDPDVYQDLLDKVREQSLGADGRVTDKYREKFDAVATRFDDYEDNYQW	-0.113
HMDAVQAGKRVLIVDDLIATGGTAKAATDLIEKAGGTVVGFSFVMRLDGLDGLDKLDGKPSSSLIAMP	0.193
HMDAYMGEAKDEETFAEEYLNDSGLLNEIPESVARYFDIVAYARDLLIGDFSLHDGHVFNMT	0.358
HMDDAFLNKEMLKQALENLNEREKKLIYLRFYEGLTQKEIADRLSLSQMHVSRLLNESLNKLRRKI	-0.44
HMDDATDLPYQEFRTQVSDGQVKIAQFNNNTGKITFESISGDKFKTSGPLELSSDDERLFLENIEDFKFFT	0.0939
